Results as given in PMC4579555, “The Cryo-EM structure of the CorA channel from Methanocaldococcus jannaschii in low magnesium conditions” (Biochimica et Biophysica Acta, 2015).

Target: the molecule itself
Assay: self-rotation function of X-ray crystallographic data; crystals grown at low pH (0.1 M sodium citrate pH 3.5, 50 mM magnesium sulphate, 50 mM cobalt chloride, 0.1 M NaCl, 13% PEG 4000, 0.9% beta-octylmaltoside); data to 9.0 A, spacegroup P2(1); structure not phased; POLARRFN self-rotation function, data to 12 A

B1: Methanocaldococcus jannaschii CorA channel (natural protein)
chain: MITVIAIAKDGSIVEPKLDEISFEDYRLIWIDCYDPKDEELYKLSKKIGISVSDLQIGLDEQEIPRVEEDEDFYLIIYKAPLFEEDITTTSLGIYIKNNLLLTIHSDKIKAIGRLHKLISTKKPRIVFERGIGFLLYHILNEITRSYSRILMNLEDELEELEDKLLAGYDREVMEKILGLRKTLVYFHKSLIANRDVLVLLKRKYLPITTKEDRENFEDLYYDTLQLIDMSATYREVLTSMMDITLSLENIKMNQIMKILTMVTTIFAVPMWITGIYGMNFSYLPLANNPQGFWLVMALMVVIIMIFVYIFRRSGWI
notes: CorA magnesium channel of Methanocaldococcus jannaschii (MjCorA); holds the N-terminal, conical and trans-membrane domains; also called MjCorA; source: final buffer 200 mM NaCl, 20 mM Tris/HCl pH8, 0.04% DDM
In the case of B1, the “stoichiometry N” value is reported as 5.
